Test results published in doi:10.1101/632075, “Determinants of FtsZ C-terminal linker-dependent regulation of cell wall metabolism in Caulobacter crescentus” (bioRxiv, 2019).

B1: Caulobacter crescentus FtsZ (natural protein, C. crescentus, UniProt B8H080 1-508, looked up)
chain: MAISLSAPRTTELKPRIVVFGVGGAGGNAVNNMIEAGLEGVEFVVANTDAQQLQFAKTDRRIQLGVQITQGLGAGAHPEVGMSAAEESFPEIGEHLDGAHMVFITAGMGGGTGTGAAPIIAKCARERGILTVGVVTKPFHFEGRHRMRLADSGIQELQRYVDTLIVIPNQNLFRVANERTTFAEAFGMADQVLHSGVRSITDLMVLPGLINLDFADVRTVMTEMGKAMMGTGEGTGEDRALMAAQNAIANPLLDEVSLKGAKAVLVNVTGGMDMTLLEVDEAANAISDQVDPEANIIFGAAFDPSLEGVIRVSVVATGMDGASIAQIEPKPVSRNISAAPLIAETSRPAPQPEPARPTARYEAARPAERPVAFAPEPAPEPEIVMSAPQPEPEAELYYDEPTVAEEPRVSAAPARSVNRIVDPLVDDVAEEPLFPENNYYEERRPQKQGGFFSMFGGGRQRYEQQASAPQAQARSAQSARPQLQPIETPQADDAEDLEIPSFLRRLAN
notes: FtsZ of Caulobacter crescentus, wild type; regions: GTPase domain, C-terminal linker (CTL), C-terminal conserved peptide (CTC); No tag is named; also called CcFtsZ; WT FtsZ; source: E. coli Rosetta(DE3)pLysS, pET21 vector, purified (anion exchange, ammonium sulfate precipitation, SEC)
B2: Escherichia coli FtsZ (natural protein, E. coli, UniProt P0A9A6 1-383, looked up)
chain: MFEPMELTNDAVIKVIGVGGGGGNAVEHMVRERIEGVEFFAVNTDAQALRKTAVGQTIQIGSGITKGLGAGANPEVGRNAADEDRDALRAALEGADMVFIAAGMGGGTGTGAAPVVAEVAKDLGILTVAVVTKPFNFEGKKRMAFAEQGITELSKHVDSLITIPNDKLLKVLGRGISLLDAFGAANDVLKGAVQGIAELITRPGLMNVDFADVRTVMSEMGYAMMGSGVASGEDRAEEAAEMAISSPLLEDIDLSGARGVLVNITAGFDLRLDEFETVGNTIRAFASDNATVVIGTSLDPDMNDELRVTVVATGIGMDKRPEITLVTNKQVQQPVMDRYQQHGMAPLTQEQKPVAKVVNDNAPQTAKEPDYLDIPAFLRKQAD
notes: FtsZ of Escherichia coli, wild type; No tag is named; also called EcFtsZ; source: E. coli Rosetta(DE3)pLysS, pET21 vector, purified (anion exchange, ammonium sulfate precipitation, SEC)

Biological target: the molecule itself
Assay: negative-stain transmission electron microscopy of polymers; 4 µM protein with 2 mM GTP for 16 minutes in 50 mM HEPES-KOH pH 7.2, 300 mM KCl, 10 mM MgCl2, 0.1 mM EDTA; spotted on carbon coated grids, uranyl formate stain

| Protein | binding result |
| --- | --- |
| B1 | binds |
| B2 | binds |
